T1: Human IL-1Rrp2/IL-1R6 protein, His Tag (ACROBiosystems, IL2-H52H6) (human, UniProt Q9HB29 20-335)
T1 construct: Bought protein; the soluble protein is likely only the extracellular part; also called hIL-36R; human IL36R antigen; not shown: His tag
T1 sequence: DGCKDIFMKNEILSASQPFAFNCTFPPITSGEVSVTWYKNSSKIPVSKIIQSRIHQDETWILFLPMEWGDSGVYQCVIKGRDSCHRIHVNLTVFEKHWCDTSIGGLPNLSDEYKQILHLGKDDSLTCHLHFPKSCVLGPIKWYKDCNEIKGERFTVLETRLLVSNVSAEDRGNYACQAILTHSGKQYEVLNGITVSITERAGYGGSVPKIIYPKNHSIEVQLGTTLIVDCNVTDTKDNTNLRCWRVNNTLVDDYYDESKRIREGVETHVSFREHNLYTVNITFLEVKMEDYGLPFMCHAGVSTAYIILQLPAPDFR

B1: hz84C4-1.1 (antibody, human IgG4 S228P, kappa, V domains shown)
VH: QVQLVQSGAEVKKPGASVKVSCKASGYFFTSYWMNWVRQAPGQGLEWMGMIHPYDSETRYAQKFQGRVTMTVDKSTSTVYMELSSLRSEDTAVYYCASSTTAFAYWGQGTLVTVSS
VL: DIQMTQSPSSLSASVGDRVTITCRASQDIGNALNWYQQKPGKAPKRLIYATSSLDPGVPSRFSGSRSGTDFTLTISSLQPEDFATYYCLQYASSPYTFGQGTKVEIKR
notes: Humanized, human IgG4 / kappa
B2: hz84C4-2.4 (antibody, human IgG4 S228P, kappa, V domains shown)
VH: B1 VH with F28Y, Y60L, Q65K
VL: B1 VL with Y36L, F71Y
notes: Humanized, human IgG4 / kappa
B3: hz84C4-1.4 (antibody, human IgG4 S228P, kappa, V domains shown)
VH: B1 VH with F28Y, Y60L, Q65K
VL: B1 VL
notes: Humanized, human IgG4 / kappa
B4: hz84C4-2.1 (antibody, human IgG4 S228P, kappa, V domains shown)
VH: B1 VH
VL: B1 VL with Y36L, F71Y
notes: Humanized, human IgG4 / kappa
B5: hz84C4-1.3 (antibody, human IgG4 S228P, kappa, V domains shown)
VH: B1 VH with H52Y
VL: B1 VL
notes: Humanized, human IgG4 / kappa
B6: hz84C4-2.2 (antibody, human IgG4 S228P, kappa, V domains shown)
VH: B1 VH with M50Y
VL: B1 VL with Y36L, F71Y
notes: Humanized, human IgG4 / kappa
B7: hz84C4-1.5 (antibody, human IgG4 S228P, kappa, V domains shown)
VH: B1 VH with A24V, R38N, Y60L, Q65K
VL: B1 VL
notes: Humanized, human IgG4 / kappa
B8: hz84C4-2.5 (antibody, human IgG4 S228P, kappa, V domains shown)
VH: B1 VH with A24V, R38N, Y60L, Q65K
VL: B1 VL with Y36L, F71Y
notes: Humanized, human IgG4 / kappa
B9: hz84C4-1.2 (antibody, human IgG4 S228P, kappa, V domains shown)
VH: B1 VH with M50Y
VL: B1 VL
notes: Humanized, human IgG4 / kappa
B10: hz84C4-2.3 (antibody, human IgG4 S228P, kappa, V domains shown)
VH: B1 VH with H52Y
VL: B1 VL with Y36L, F71Y
notes: Humanized, human IgG4 / kappa

The results in this text go back to patent US20240270857A1 (CHIA TAI TIANQING PHARMACEUTICAL GROUP, published 2024).

What is called Kd is the free concentration of one partner at which half of the binding sites on the other are occupied at equilibrium, for simple one-to-one binding. By koff is commonly meant the first-order rate constant of dissociation. Higher therefore signals fast dissociation. Usually kon stands for the second-order rate constant of association. Low values mean slow association, high ones fast association. The EC50 is the concentration that produces a half-maximal response. Read a high EC50 as a less potent agent.

Positions count from the first letter of the chain named.

The first assay concerns the target T1, Human IL-1Rrp2/IL-1R6 protein, His Tag …. Nature of the assay: BLI (ForteBio Octet), antibody on ProA sensor, 1:1 model. As for the experimental part: The affinity of anti-IL-36R antibodies to CynoIL36R-ECD mFc and human IL-1Rrp2/IL-IR6 protein, His Tag (ACROBiosystems, IL2-H52H6) was measured by a ForteBio molecular interaction instrument. […] And then the biosensor was used to bind CynoIL36R-ECD mFc or human IL-1Rrp2/IL-1R6 protein, His Tag which was diluted by a gradient (the initial concentration was 200 nM, 2-fold gradient dilution), the response signals were detected in real time using a Fortebio molecular interaction instrument (SARTORIUS, octet red 96e), and association and dissociation curves were obtained. After the completion of dissociation in each cycle, the biosensor was regenerated for the next capture; the procedure was repeated until the affinity of the different anti-IL-36R antibodies for IL-36R was determined. The resulting data were analyzed by Fortebio Data Analysis 11.0 software in a 1:1 (Langmuir) binding model to determine kₐ (kₒₙ) and kd (koff) values, and the dissociation constant KD was calculated by KD=kd/kₐ. The detection method essentially followed the manufacturer's recommendations, and more information could be found at www.fortebio.com.
Affinity, binding and blocking assays for humanized antibodies hz72C1-1.1, hz72C1-1.2, hz72C1-1.3, hz72C1-2.1, hz72C1-2.2 and hz72C1-2.3 as well as hz84C4-1.1, hz84C4-1.2, hz84C4-1.3, hz84C4-1.4, hz84C4-1.5, hz84C4-2.1, hz84C4-2.2, hz84C4-2.3, hz84C4-2.4 and hz84C4-2.5 were performed according to the methods of Example 4, Example 5. Example 6, Example 7 and Example 8.
B1 showed a Kd of 0.958 nM, a koff of 0.000102 s⁻¹ and a kon of 107000 M⁻¹ s⁻¹.
For B2, in that order: 1.88 nM, 0.000196 s⁻¹ and 105000 M⁻¹ s⁻¹.
On the same counts, the results for B3 are 1.98 nM, 0.000236 s⁻¹ and 119000 M⁻¹ s⁻¹.
For B4, in that order: 1.22 nM, 0.000116 s⁻¹ and 94500 M⁻¹ s⁻¹.
Consider B5, for which binding was characterised by a dissociation constant (Kd) of 0.527 nM, the koff came out at 3.26e-05 s⁻¹ and the kon was found to be 61900 M⁻¹ s⁻¹.
Consider B6, for which the Kd was found to be 1.55 nM, the koff came out at 0.000142 s⁻¹ and the kon is 91500 M⁻¹ s⁻¹.
For B7, in that order: 1.34 nM, 0.000134 s⁻¹ and 100000 M⁻¹ s⁻¹.
On the same counts, the results for B8 are 1.44 nM, 0.000138 s⁻¹ and 96400 M⁻¹ s⁻¹.
For B9, in that order: 1.61 nM, 0.000161 s⁻¹ and 100000 M⁻¹ s⁻¹.
As to B10, the equilibrium dissociation constant (Kd) came out at 0.831 nM, the koff turned out to be 5.12e-05 s⁻¹ and the kon amounted to 61600 M⁻¹ s⁻¹.

For a further assay the target is unchanged. Nature of the assay: ELISA, plate coated with human IL-1Rrp2/IL-1R6 His Tag, HRP-protein A/G, OD450. As for the experimental part:
The binding activity of anti-IL-36R antibodies to IL-36R was analyzed by ELISA using human IL-1Rrp2/IL-1R6 protein, His Tag (ACROBiosystems, IL2-H52H6) and CynoIL36R-ECD mFc (for detection of chimeric and humanized antibodies), and hIL36R-ECD hFc and CynoIL36R-ECD hFc protein (for detection of hybridoma antibodies) as antigens. A 96-well plate (Costar, 9018) was coated with 2 μg/mL antigen at 100 μL/well and incubated overnight at 4° C. After the 96-well plate was washed with a washing buffer (PBS containing 0.05% v/v Tween 20), a blocking buffer (PBS containing 2% bovine serum albumin) was added for blocking at 37° C. for 2 h. After the 96-well plate was washed with the washing buffer, 100 μL of the gradient diluted anti-IL-36R antibody of the present disclosure or the reference antibody BI655130 (the initial concentration of the antibody was 66 nM, 4-fold gradient dilution) was added to each well, and the plate was incubated at room temperature for 1 h. After the 96-well plate was washed with the washing buffer, 100 μL of horseradish peroxidase-conjugated recombinant protein A/G (TheroScientific, 32490) was added to each well, and the plate was incubated at room temperature for 1 h. After the 96-well plate was washed with the washing buffer, 100 μL of a TMB solution (Thermo, 00-4201-56) was added to each well, and the plate was incubated at room temperature for 2 min. Finally, 100 μL of a stop solution (2 N H₂SO₄) was added to each well to stop the reaction. Absorbance was read at 450 nm using a microplate reader (PE, Envision), the resulting data was analyzed using GraphPad Prism, and EC₅₀ was calculated. Binding EC₅₀ of the chimeric anti-IL-36R antibodies to hIL-36R in an ELISA assay is shown in FIG. 1. and binding EC₅₀ of the chimeric anti-IL-36R antibodies to CynoIL-36R in an ELISA assay is shown in FIG. 2. The binding of BI655130 is shown as a control, and the binding of IgG4 is shown as a negative control.
The molecule B1 had an EC50 of 0.509 nM.
On the same count and under the same terms, for B2 the value was 0.453 nM.
Same read-out and setting: to B3 belongs 0.684 nM; to B4, 0.558 nM; to B5, 3.41 nM.
Still for that read-out and setting: to B6 belongs 0.533 nM; to B7, 0.624 nM; to B8, 0.497 nM.
In turn, B9 yielded an EC50 of 0.531 nM.
Same read-out and setting: for B10 the value was 2.25 nM.
